# B1: DNA guide 3466 ; DNA target 7023 (ssDNA ; ssDNA)
# DNA 1: TGAGGTAGTAGGTTGTATAGT
# DNA 2: AAACGACGGCCAGTGCCAAGCTTACTATACAACCTACTACCTCAT
# modifications: 5'-phosphate ; 5'-phosphate
# B2: RNA guide 7024 ; DNA target 7023 (ssRNA ; ssDNA)
# RNA: UGAGGUAGUAGGUUGUAUAGU
# DNA: AAACGACGGCCAGTGCCAAGCTTACTATACAACCTACTACCTCAT
# modifications: 5'-phosphate ; 5'-phosphate
# B3: DNA guide 3466 ; RNA target 7022 (ssDNA ; ssRNA)
# DNA: TGAGGTAGTAGGTTGTATAGT
# RNA: AAACGACGGCCAGUGCCAAGCUUACUAUACAACCUACUACCUCAU
# modifications: 5'-phosphate ; 5'-phosphate
# B4: RNA guide 7024 ; RNA target 7022 (ssRNA ; ssRNA)
# RNA 1: UGAGGUAGUAGGUUGUAUAGU
# RNA 2: AAACGACGGCCAGUGCCAAGCUUACUAUACAACCUACUACCUCAU
# modifications: 5'-phosphate ; 5'-phosphate
# Legend:
# Settings in all cases: tags: His-MBP N-terminal (TEV added during purification)
# CbAgo [1] = target: T1, CbAgo (Clostridium butyricum, UniProt P0DYD1 SEQ:1-748); test: EMSA; DNA guide preloaded, 37 C; target printed as 7043 in text, 7023 in Table 2
# Protocol: (§1) CbAgo (10 pmol) was pre-incubated with the desired polynucleotide guide (RNA guide: 7024, DNA guide: 3466, 10 pmol) for 5 min at 37° C. This was followed by addition of a target polynucleotide (RNA target: […]: 7043, 10 pmol) and another incubation step of 5 min at 37° C. The reactions were then resolved on a 6% Native PAGE gel and stained with SYBR gold.
# CbAgo [2] = target: T1, CbAgo; test: EMSA; RNA guide, DNA target, 37 C; target printed as 7043 in text, 7023 in Table 2
# Protocol: as §1
# CbAgo [3] = target: T1, CbAgo; test: EMSA; DNA guide, RNA target, 37 C
# Protocol: as §1
# CbAgo [4] = target: T1, CbAgo; test: EMSA; RNA guide, RNA target, 37 C
# Protocol: as §1
binder,measurement,setting,value
B1,binding result,CbAgo [1],binds
B2,binding result,CbAgo [2],binds
B3,binding result,CbAgo [3],binds
B4,binding result,CbAgo [4],binds

# — patent publication US20190292537, “Prokaryotic Argonaute Proteins and Uses Thereof” (Wageningen Universiteit, published 2019)
